A word on the % inhibition: it is the share of the control response that was lost under treatment. Higher therefore signals a response far below the control.

In test [1] the target is human IgE of ten monosensitive Pj allergic patients (single sera / the patients themselves) (human). In words: cell-based or functional assay.
The target of test [2] is human IgE from a pool of sera (n=10) of Pj monosensitive allergic patients (human). In words: ELISA inhibition: pool of sera (n=10, 1:5) preincubated with the protein (0.25-20 ug/ml), then on wells coated with rParj1; bound IgE detected. In general terms: In an ELISA, binding on a coated surface is turned into a signal by an enzyme label.

B1: PjB mutant of Par j 1.0102 (Cys50->Ser and Cys52->Ser) (protein, not shown: small tags and cut ends)
chain: QETCGTMVRALMPCLPFVQGKEKEPSKGCCSGAKRLDGETKTGPQRVHASESIQTAMKTYSDIDGKLVSEVPKHCGIVDSKLPPIDVNMDCKTVGVVPRQPQLPVSLRHGPVTGPSDPAHKARLERPQIRVPPPAPEKA
As to B1, the skin prick test, patients with Type I immediate hypersensitivity (out of 10 patients) in test [1] turned out to be 9. Besides, the % inhibition in test [2] turned out to be 85%.

B2: PjD mutant of Par j 1.0102 (Cys29->Ser, Cys30->Ser, Cys50->Ser and Cys52->Ser) (protein, not shown: small tags and cut ends)
chain: QETCGTMVRALMPCLPFVQGKEKEPSKGSSSGAKRLDGETKTGPQRVHASESIQTAMKTYSDIDGKLVSEVPKHCGIVDSKLPPIDVNMDCKTVGVVPRQPQLPVSLRHGPVTGPSDPAHKARLERPQIRVPPPAPEKA
Turning to B2, in test [2], the % inhibition was 15%.

B3: PjC mutant of Par j 1.0102 (Cys4->Ser, Cys29->Ser and Cys30->Ser) (protein, not shown: small tags and cut ends)
chain: QETSGTMVRALMPCLPFVQGKEKEPSKGSSSGAKRLDGETKTGPQRVHACECIQTAMKTYSDIDGKLVSEVPKHCGIVDSKLPPIDVNMDCKTVGVVPRQPQLPVSLRHGPVTGPSDPAHKARLERPQIRVPPPAPEKA
For the molecule B3, the % inhibition in test [2] was determined as 14%.

B4: PjA mutant of Par j 1.0102 (Cys29->Ser and Cys30->Ser) (protein, not shown: small tags and cut ends)
chain: QETCGTMVRALMPCLPFVQGKEKEPSKGSSSGAKRLDGETKTGPQRVHACECIQTAMKTYSDIDGKLVSEVPKHCGIVDSKLPPIDVNMDCKTVGVVPRQPQLPVSLRHGPVTGPSDPAHKARLERPQIRVPPPAPEKA
In test [1], B4 displayed a skin prick test, patients with a positive reaction (out of 10 patients) of 3. In test [2], this molecule gave a % inhibition of 16%.

B5: recombinant Par j 1.0102, major allergen of Parietaria judaica (wild type) (protein, not shown: small tags and cut ends)
chain: QETCGTMVRALMPCLPFVQGKEKEPSKGCCSGAKRLDGETKTGPQRVHACECIQTAMKTYSDIDGKLVSEVPKHCGIVDSKLPPIDVNMDCKTVGVVPRQPQLPVSLRHGPVTGPSDPAHKARLERPQIRVPPPAPEKA
With B5, the % inhibition in test [2] came out at 95%.

Source of the values: patent US20050031631A1.
